The values that follow come from article PMC7201278, “A structural study of TatD from Staphylococcus aureus elucidates a putative DNA-binding mode of a Mg^2+-dependent nuclease” (IUCrJ, 2020).

The target of assay [1] is SaTatD (SAV0491), TatD-like DNase from Staphylococcus aureus (Mu50 strain) (Staphylococcus aureus (Mu50 strain)). Put plainly: SEC; analytical gel filtration, Superdex 200 (10/300 GL), buffer A (20 mM Tris, 150 mM NaCl pH 8.0), 0.5 ml/min, gel-filtration standards; SaTatD at 20.0 mg/ml (high concentration). Background: Size exclusion chromatography separates by hydrodynamic size, large species first.

Assay [2] has as its target T1, SaTatD (SAV0491) (Staphylococcus aureus, UniProt W8U6D8).
T1 construct: gene yabD
As to conditions: two phosphates per monomer in active site, coordinated to two Ni2+; SeMet-derived protein; 2.4 M sodium malonate pH 7.0, 20°C.

In assay [1], “SaTatD (SAV0491), TatD-like DNase from Staphylococcus aureus (Mu50 strain) (enzyme)” showed a stoichiometry N of 2.

`O=P(O)(O)O` [phosphate]: the “X-ray crystal structure (SAD, 1.85 Å)” value in assay [2] is “Polar interactions were also observed between the two phosphates and the surface residues of SaTatD”.

What is called stoichiometry N is the number of molecules, sites or subunits per partner or assembly.
